One may read the Kd as the constant that tells how readily two partners part at equilibrium.

The values below come from publication PMC9352680, “A comprehensive thermodynamic model for RNA binding by the Saccharomyces cerevisiae Pumilio protein PUF4”.

Where only a bound is given, the exact number is not on record here.

First the molecules themselves.
T1: PUF4 RNA-binding domain (Saccharomyces cerevisiae, UniProt P25339 537-888)
T1 sequence: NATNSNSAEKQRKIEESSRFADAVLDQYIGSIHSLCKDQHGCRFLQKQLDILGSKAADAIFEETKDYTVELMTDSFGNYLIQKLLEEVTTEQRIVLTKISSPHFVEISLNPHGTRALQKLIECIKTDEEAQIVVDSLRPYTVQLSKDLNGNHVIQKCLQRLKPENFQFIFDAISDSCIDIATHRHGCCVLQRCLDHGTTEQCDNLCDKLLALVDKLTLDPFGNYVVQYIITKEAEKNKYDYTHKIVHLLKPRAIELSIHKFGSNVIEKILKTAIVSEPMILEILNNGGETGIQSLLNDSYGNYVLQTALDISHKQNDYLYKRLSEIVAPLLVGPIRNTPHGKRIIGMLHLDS

B1: Ic_S2_P4E.1_K4.1_C4.1_H4.1_A4.1_[T7C]_F4.1_[T8A]_T4.1 (ssRNA)
RNA: UUUGAUUAAUAUGAUAUCGUUCUUUCUUGUAUACAAUUCUUUCUCGAUAUCAUAUUAAUCUUU
B2: Ib_S2_P4E.1_K4.1_C4.1_H4.1_A4.1_[T5A]_F4.1_[A9C]_T4.1 (ssRNA)
RNA: UUUGAUUAAUAUGAUAUCGUUCUUUCUUGUAAAUUCUUCUUUCUCGAUAUCAUAUUAAUCUUU
B3: Ib_S2_P4E.1_K4.1_C4.1_H4.1_A4.1_[T7A]_F4.1_[A9C]_T4.1 (ssRNA)
RNA: UUUGAUUAAUAUGAUAUCGUUCUUUCUUGUAUAAUCUUCUUUCUCGAUAUCAUAUUAAUCUUU
B4: Ib_S2_P4E.1_K4.1_C4.1_H4.1_[T1G]_[G2T]_A4.1_F4.1_T4.1 (ssRNA)
RNA: UUUGAUUAAUAUGAUAUCGUUCUUUCUGUUAUAUUAUUCUUUCUCGAUAUCAUAUUAAUCUUU
B5: Ib_S2_P4E.1_K4.1_C4.1_H4.1_[T3C]_[A4C]_A4.1_F4.1_T4.1 (ssRNA)
RNA: UUUGAUUAAUAUGAUAUCGUUCUUUCUUGCCUAUUAUUCUUUCUCGAUAUCAUAUUAAUCUUU
B6: Ib_S2_P4E.1_K4.1_C4.1_H4.1_[G2A]_[A4G]_A4.1_F4.1_T4.1 (ssRNA)
RNA: UUUGAUUAAUAUGAUAUCGUUCUUUCUUAUGUAUUAUUCUUUCUCGAUAUCAUAUUAAUCUUU
B7: Ib_S2_P4E.1_K4.1_C4.1_H4.1_A4.1_[A6G]_F4.1_[A9G]_T4.1 (ssRNA)
RNA: UUUGAUUAAUAUGAUAUCGUUCUUUCUUGUAUGUUGUUCUUUCUCGAUAUCAUAUUAAUCUUU
B8: Ib_S2_P4E.1_K4.1_C4.1_H4.1_[G2A]_[T3A]_A4.1_F4.1_T4.1 (ssRNA)
RNA: UUUGAUUAAUAUGAUAUCGUUCUUUCUUAAAUAUUAUUCUUUCUCGAUAUCAUAUUAAUCUUU
B9: Ib_S2_P4E.1_K4.1_C4.1_H4.1_A4.1_[A6C]_F4.1_[A9T]_T4.1 (ssRNA)
RNA: UUUGAUUAAUAUGAUAUCGUUCUUUCUUGUAUCUUUUUCUUUCUCGAUAUCAUAUUAAUCUUU
B10: Ib_S2_P4E.1_K4.1_C4.1_H4.1_[T1G]_[A4G]_A4.1_F4.1_T4.1 (ssRNA)
RNA: UUUGAUUAAUAUGAUAUCGUUCUUUCUGGUGUAUUAUUCUUUCUCGAUAUCAUAUUAAUCUUU
B11: Ib_S2_P4E.1_K4.1_C4.1_H4.1_[G2A]_[A4C]_A4.1_F4.1_T4.1 (ssRNA)
RNA: UUUGAUUAAUAUGAUAUCGUUCUUUCUUAUCUAUUAUUCUUUCUCGAUAUCAUAUUAAUCUUU
B12: Ic_S2_P4E.1_K4.1_C4.1_H4.1_A4.1_[T7G]_F4.1_[A9T]_T4.1 (ssRNA)
RNA: UUUGAUUAAUAUGAUAUCGUUCUUUCUUGUAUAGUUUUCUUUCUCGAUAUCAUAUUAAUCUUU
B13: Ia_S2_P4E.1_K4.1_C4.1_H4.1_[G2C]_A4.1_F4.1_T4.1 (ssRNA)
RNA: UUUGAUUAAUAUGAUAUCGUUCUUUCUUCUAUAUUAUUCUUUCUCGAUAUCAUAUUAAUCUUU
B14: Ib_S2_P4E.1_K4.1_C4.1_H4.1_[G2A]_[T3C]_A4.1_F4.1_T4.1 (ssRNA)
RNA: UUUGAUUAAUAUGAUAUCGUUCUUUCUUACAUAUUAUUCUUUCUCGAUAUCAUAUUAAUCUUU
B15: Ic_S2_P4E.1_K4.1_C4.1_H4.1_A4.1_[T7G]_F4.1_[A9G]_T4.1 (ssRNA)
RNA: UUUGAUUAAUAUGAUAUCGUUCUUUCUUGUAUAGUGUUCUUUCUCGAUAUCAUAUUAAUCUUU
B16: Ib_S2_P4E.1_K4.1_C4.1_H4.1_[T1C]_[A4G]_A4.1_F4.1_T4.1 (ssRNA)
RNA: UUUGAUUAAUAUGAUAUCGUUCUUUCUCGUGUAUUAUUCUUUCUCGAUAUCAUAUUAAUCUUU
B17: Ib_S2_P4E.1_K4.1_C4.1_H4.1_[T3C]_[A4T]_A4.1_F4.1_T4.1 (ssRNA)
RNA: UUUGAUUAAUAUGAUAUCGUUCUUUCUUGCUUAUUAUUCUUUCUCGAUAUCAUAUUAAUCUUU
B18: Ib_S2_P4E.1_K4.1_C4.1_H4.1_A4.1_[A6G]_F4.1_[A9T]_T4.1 (ssRNA)
RNA: UUUGAUUAAUAUGAUAUCGUUCUUUCUUGUAUGUUUUUCUUUCUCGAUAUCAUAUUAAUCUUU
B19: Ib_S2_P4E.1_K4.1_C4.1_H4.1_[G2T]_[A4C]_A4.1_F4.1_T4.1 (ssRNA)
RNA: UUUGAUUAAUAUGAUAUCGUUCUUUCUUUUCUAUUAUUCUUUCUCGAUAUCAUAUUAAUCUUU
B20: Ib_S2_P4E.1_K4.1_C4.1_H4.1_[G2A]_[A4T]_A4.1_F4.1_T4.1 (ssRNA)
RNA: UUUGAUUAAUAUGAUAUCGUUCUUUCUUAUUUAUUAUUCUUUCUCGAUAUCAUAUUAAUCUUU
B21: Ib_S2_P4E.1_K4.1_C4.1_H4.1_[T1G]_[T3C]_A4.1_F4.1_T4.1 (ssRNA)
RNA: UUUGAUUAAUAUGAUAUCGUUCUUUCUGGCAUAUUAUUCUUUCUCGAUAUCAUAUUAAUCUUU
B22: Ic_S2_P4E.1_K4.1_C4.1_H4.1_A4.1_[T5C]_F4.1_[A9C]_T4.1 (ssRNA)
RNA: UUUGAUUAAUAUGAUAUCGUUCUUUCUUGUACAUUCUUCUUUCUCGAUAUCAUAUUAAUCUUU
B23: Ib_S2_P4E.1_K4.1_C4.1_H4.1_[G2T]_[A4T]_A4.1_F4.1_T4.1 (ssRNA)
RNA: UUUGAUUAAUAUGAUAUCGUUCUUUCUUUUUUAUUAUUCUUUCUCGAUAUCAUAUUAAUCUUU
B24: Ib_S2_P4E.1_K4.1_C4.1_H4.1_[T1G]_A4.1_[T5C]_F4.1_T4.1 (ssRNA)
RNA: UUUGAUUAAUAUGAUAUCGUUCUUUCUGGUACAUUAUUCUUUCUCGAUAUCAUAUUAAUCUUU
B25: Ib_S2_P4E.1_K4.1_C4.1_H4.1_A4.1_[T5A]_F4.1_[A9T]_T4.1 (ssRNA)
RNA: UUUGAUUAAUAUGAUAUCGUUCUUUCUUGUAAAUUUUUCUUUCUCGAUAUCAUAUUAAUCUUU
B26: Ib_S2_P4E.1_K4.1_C4.1_H4.1_[G2C]_[T3A]_A4.1_F4.1_T4.1 (ssRNA)
RNA: UUUGAUUAAUAUGAUAUCGUUCUUUCUUCAAUAUUAUUCUUUCUCGAUAUCAUAUUAAUCUUU
B27: Ic_S2_P4E.1_K4.1_C4.1_H4.1_A4.1_[T7A]_F4.1_[A9T]_T4.1 (ssRNA)
RNA: UUUGAUUAAUAUGAUAUCGUUCUUUCUUGUAUAAUUUUCUUUCUCGAUAUCAUAUUAAUCUUU
B28: Ic_S2_P4E.1_K4.1_C4.1_H4.1_A4.1_[A6C]_F4.1_[A9C]_T4.1 (ssRNA)
RNA: UUUGAUUAAUAUGAUAUCGUUCUUUCUUGUAUCUUCUUCUUUCUCGAUAUCAUAUUAAUCUUU
B29: Ib_S2_P4E.1_K4.1_C4.1_H4.1_A4.1_[T7C]_F4.1_[A9T]_T4.1 (ssRNA)
RNA: UUUGAUUAAUAUGAUAUCGUUCUUUCUUGUAUACUUUUCUUUCUCGAUAUCAUAUUAAUCUUU
B30: Ib_S2_P4E.1_K4.1_C4.1_H4.1_A4.1_[A6C]_F4.1_[A9G]_T4.1 (ssRNA)
RNA: UUUGAUUAAUAUGAUAUCGUUCUUUCUUGUAUCUUGUUCUUUCUCGAUAUCAUAUUAAUCUUU
B31: Ic_S2_P4E.1_K4.1_C4.1_H4.1_A4.1_[T7A]_F4.1_[A9G]_T4.1 (ssRNA)
RNA: UUUGAUUAAUAUGAUAUCGUUCUUUCUUGUAUAAUGUUCUUUCUCGAUAUCAUAUUAAUCUUU
B32: Ib_S2_P4E.1_K4.1_C4.1_H4.1_[T1A]_[G2C]_A4.1_F4.1_T4.1 (ssRNA)
RNA: UUUGAUUAAUAUGAUAUCGUUCUUUCUACUAUAUUAUUCUUUCUCGAUAUCAUAUUAAUCUUU
B33: Ib_S2_P4E.1_K4.1_C4.1_H4.1_A4.1_[T5A]_F4.1_[A9G]_T4.1 (ssRNA)
RNA: UUUGAUUAAUAUGAUAUCGUUCUUUCUUGUAAAUUGUUCUUUCUCGAUAUCAUAUUAAUCUUU
B34: Ib_S2_P4E.1_K4.1_C4.1_H4.1_A4.1_[A6T]_F4.1_[A9T]_T4.1 (ssRNA)
RNA: UUUGAUUAAUAUGAUAUCGUUCUUUCUUGUAUUUUUUUCUUUCUCGAUAUCAUAUUAAUCUUU
B35: Ia_S2_P4E.1_K4.1_C4.1_H4.1_[T1A]_A4.1_F4.1_T4.1 (ssRNA)
RNA: UUUGAUUAAUAUGAUAUCGUUCUUUCUAGUAUAUUAUUCUUUCUCGAUAUCAUAUUAAUCUUU
B36: Ib_S2_P4E.1_K4.1_C4.1_H4.1_[T1A]_[G2A]_A4.1_F4.1_T4.1 (ssRNA)
RNA: UUUGAUUAAUAUGAUAUCGUUCUUUCUAAUAUAUUAUUCUUUCUCGAUAUCAUAUUAAUCUUU
B37: Ib_S2_P4E.1_K4.1_C4.1_H4.1_[G2T]_[T3A]_A4.1_F4.1_T4.1 (ssRNA)
RNA: UUUGAUUAAUAUGAUAUCGUUCUUUCUUUAAUAUUAUUCUUUCUCGAUAUCAUAUUAAUCUUU
B38: Ib_S2_P4E.1_K4.1_C4.1_H4.1_[T1G]_[A4C]_A4.1_F4.1_T4.1 (ssRNA)
RNA: UUUGAUUAAUAUGAUAUCGUUCUUUCUGGUCUAUUAUUCUUUCUCGAUAUCAUAUUAAUCUUU
B39: Ib_S2_P4E.1_K4.1_C4.1_H4.1_A4.1_[A6T]_F4.1_[A9C]_T4.1 (ssRNA)
RNA: UUUGAUUAAUAUGAUAUCGUUCUUUCUUGUAUUUUCUUCUUUCUCGAUAUCAUAUUAAUCUUU
B40: Ia_S2_P4E.1_K4.1_C4.1_H4.1_[G2T]_A4.1_F4.1_T4.1 (ssRNA)
RNA: UUUGAUUAAUAUGAUAUCGUUCUUUCUUUUAUAUUAUUCUUUCUCGAUAUCAUAUUAAUCUUU
B41: Ic_S2_P4E.1_K4.1_C4.1_H4.1_A4.1_F4.1_[A9T]_T4.1 (ssRNA)
RNA: UUUGAUUAAUAUGAUAUCGUUCUUUCUUGUAUAUUUUUCUUUCUCGAUAUCAUAUUAAUCUUU
B42: Ic_S2_P4E.1_K4.1_C4.1_H4.1_A4.1_[T7A]_F4.1_[T8A]_T4.1 (ssRNA)
RNA: UUUGAUUAAUAUGAUAUCGUUCUUUCUUGUAUAAAAUUCUUUCUCGAUAUCAUAUUAAUCUUU

The data set deals with T1, PUF4 RNA-binding domain. Kind of data set: Mg; RNA-MaP; 20 mM Na-HEPES pH 7.4, 30 mM KOAc, 0.75 mM MgCl2, 0.1% Tween-20, 5% glycerol, 0.1 mg/mL BSA, 2 mM DTT; 25 C; 0.0125-409.6 nM protein. Particulars: tags: N-His6-TEV cleaved; C-SNAP kept, Cy3B-labelled; label: tethered on chip by stalled RNA polymerase.
B1 displayed a Kd of 18 nM.
The figure for B2 is 17.1 nM; for B3 it is 12.3 nM; for B4 it is 7.76 nM.
Turning to B5, binding was put at a Kd of 1130 nM.
For the molecule B6, the Kd is 13.3 nM.
The figure for B7 is 26.5 nM.
B8: the Kd is more than 2300 nM.
The value for B9 was 8.41 nM.
Turning to B10, the Kd worked out at 18.6 nM.
B11 yielded a Kd of 1120 nM.
The figure for B12 is 11.6 nM; for B13 it is 151 nM; for B14 it is 1430 nM.
On to B15, for which the Kd was 6.7 nM.
As to B16, binding was put at a Kd of 7.32 nM. This Kd and that of the molecule before are within 1.5-fold of each other.
In turn, B17 returned an equilibrium dissociation constant (Kd) of 667 nM.
For B18, the dissociation constant (Kd) turned out to be 18.3 nM.
The value for B19 was more than 2300 nM; that for B20 was 852 nM; that for B21 was 222 nM.
The figure for B22 is 2.72 nM.
The value for B23 was more than 2300 nM.
Molecule B24 showed a dissociation constant (Kd) of 21.1 nM. That is a double-digit nanomolar value.
The value for B25 was 11 nM; that for B26 was more than 2300 nM; that for B27 was 4.33 nM.
With B28, the dissociation constant Kd is 14.5 nM.
The figure for B29 is 2.73 nM.
The value for B30 was 9.54 nM; that for B31 was 5.97 nM; that for B32 was 174 nM.
The figure for B33 is 9.22 nM; for B34 it is 9.83 nM; for B35 it is 103 nM.
The molecule B36 gave a Kd of 616 nM.
The figure for B37 is 2120 nM; for B38 it is 1520 nM.
The value for B39 was 20.5 nM; that for B40 was 137 nM.
The figure for B41 is 1.55 nM; for B42 it is 16.9 nM.
